From doi:10.1101/2020.12.29.424758 (bioRxiv, 2020)

Molecular target: YiiP from S. oneidensis (wild-type) (S. oneidensis, UniProt Q8E919)
Assay: SEC

Chain of YiiP from S. oneidensis (wild-type) (Q8E919 whole entry): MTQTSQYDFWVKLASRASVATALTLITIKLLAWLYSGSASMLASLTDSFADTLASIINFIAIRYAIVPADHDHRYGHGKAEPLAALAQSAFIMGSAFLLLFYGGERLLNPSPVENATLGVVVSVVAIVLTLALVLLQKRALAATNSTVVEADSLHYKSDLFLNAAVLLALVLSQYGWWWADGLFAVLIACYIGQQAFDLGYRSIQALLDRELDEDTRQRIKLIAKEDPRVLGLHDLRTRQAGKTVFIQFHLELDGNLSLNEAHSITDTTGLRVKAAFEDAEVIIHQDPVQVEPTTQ

B1: Fab2 (Fab, V domains shown)
VH: EVQLVESGGGLVQPGGSLRLSCAASGFTIYSSSIHWVRQAPGKGLEWVASIYSSSGSTYYADSVKGRFTISADTSKNTAYLQMNSLRAEDTAVYYCARQSYSGLSPRRHWSYGAMDYWGQGTLVTVSS
VL: DIQMTQSPSSLSASVGDRVTITCRASQSVSSAVAWYQQKPGKAPKLLIYSASSLYSGVPSRFSGSRSGTDFTLTISSLQPEDFATYYCQQIWSWPLITFGQGTKVEIK
**Q.** Does B1 bind?
**A.** Result: binds
